# Source: patent US20240270813A1 (UNIVERSITY OF PITTSBURGH OF THE COMMONWEALTH SYSTEM OF …, published 2024)
# Changes are numbered by the printed parent chain. Values joined by “and” are separate entries in the source; they are usually repeats but may differ in a detail not shown here. Equal values may be shown once. Read-outs that look alike come from different tables or passages of the source.
# B1: TCR AB (TCR, V domains shown)
# V domain 1: AQSVAQPEDQVNVAEGNPLTVKCTYSVSGNPYLFWYVQYPNRGLQFLLKYITGDNLVKGSYGFEAEFNKSQTSFHLKKPSALVSDSALYFCAVRVPTGGYQKVTFGIGTKLQVIP
# V domain 2: DTGVSQNPRHKITKRGQNVTFRCDPISEHNRLYWYRQTLGQGPEFLTYFQNEAQLEKSRLLSDRFSAERPKGSFSTLEIQRTEQGDSAMYLCASKLTDTQYFGPGTRLTVLE
# B2: TCR D (TCR, V domains shown)
# V domain 1: AQSVAQPEDQVNVAEGNPLTVKCTYSVSGNPYLFWYVQYPNRGLQFLLKYITGDNLVKGSYGFEAEFNKSQTSFHLKKPSALVSDSALYFCAVRAPTSGTYKYIFGTGTRLKVLA
# V domain 2: DTGVSQDPRHKITKRGQNVTFRCDPISEHNRLYWYRQTLGQGPEFLTYFQNEAQLEKSRLLSDRFSAERPKGSFSTLEIQRTEQGDSAMYLCASSLVSGNEQFFGPGTRLTVLE
# B3: TCR E (TCR, V domains shown)
# V domain 1: B2 V domain 1 with A95G
# V domain 2: B2 V domain 2
# B4: TCR AD (TCR, V domains shown)
# V domain 1: SQQGEEDPQALSIQEGENATMNCSYKTSINNLQWYRQNSGRGLVHLILIRSNEREKHSGRLRVTLDTSKKSSSLLITASRAADTASYFCATVPTDYMYSGGGADGLTFGKGTHLIIQP
# V domain 2: B2 V domain 2 with D7N, S98R, G99L, N100D, E101G, Q102Y, F103T, P106S, L113V
# B5: TCR AA (TCR, V domains shown)
# V domain 1: QQQVKQSPQSLIVQKGGISIINCAYENTAFDYFPWYQQFPGKGPALLIAIRPDVSEKKEGRFTISFNKSAKQFSLHIMDSQPGDSATYFCAASSPGTYKYIFGTGTRLKVLA
# V domain 2: B2 V domain 2 with V97L, S98K, G99N, N100T, Q102A, P106Q, L113V
# B6: TCR C (TCR, V domains shown)
# V domain 1: KQEVTQIPAALSVPEGENLVLNCSFTDSAIYNLQWFRQDPGKGLTSLLLIQSSQREQTSGRLNASLDKSSGRSTLYIAASQPGDSATYLCAVRPRTSGTYKYIFGTGTRLKVLA
# V domain 2: B2 V domain 2 with S95T, L96E, V97L, E101T, Q102I, F103Y, P106E, T108S, R109W, L113V
# B7: TCR Y (TCR, V domains shown)
# V domain 1: SQQGEEDPQALSIQEGENATMNCSYKTSINNLQWYRQNSGRGLVHLILIRSNEREKHSGRLRVTLDTSKKSSSLLITASRAADTASYFCATAYSGGGADGLTFGKGTHLIIQP
# V domain 2: B2 V domain 2 with D7N, V97I, S98R, G99A, N100E, E101K, Q102L, P106S, R109Q, T111S
# B8: TCR AF (TCR, V domains shown)
# V domain 1: B2 V domain 1 with A95S
# V domain 2: B2 V domain 2
# B9: TCR W (TCR, V domains shown)
# V domain 1: B2 V domain 1 with A95D
# V domain 2: B2 V domain 2 with S98Q
# B10: TCR AG (TCR, V domains shown)
# V domain 1: B2 V domain 1 with A95T
# V domain 2: B2 V domain 2
# B11: TCR AI (TCR, V domains shown)
# V domain 1: B2 V domain 1 with A95E
# V domain 2: B2 V domain 2 with S98N
# B12: TCR AE (TCR, V domains shown)
# V domain 1: B2 V domain 1 with A95C
# V domain 2: B2 V domain 2
# B13: TCR AH (TCR, V domains shown)
# V domain 1: B2 V domain 1 with A95V
# V domain 2: B2 V domain 2
# B14: TCR AC (TCR, V domains shown)
# V domain 1: SQQGEEDPQALSIQEGENATMNCSYKTSINNLQWYRQNSGRGLVHLILIRSNEREKHSGRLRVTLDTSKKSSSLLITASRAADTASYFCAKNDMRFGAGTRLTVKP
# V domain 2: B2 V domain 2 with D7N, V97L, S98V, N100E, E101T, F103Y, T111L
# B15: TCR Z (TCR, V domains shown)
# V domain 1: QQVMQIPQYQHVQEGEDFTTYCNSSTTLSNIQWYKQRPGGHPVFLIQLVKSGEVKKQKRLTFQFGEAKKNSSLHITATQTTDVGTYFCAGPKGNTPLVFGKGTRLSVIA
# V domain 2: B2 V domain 2 with V97T, S98V, G99S, N100Y, F103Y, L113T
# B16: TCR X (TCR, V domains shown)
# V domain 1: GENVEQHPSTLSVQEGDSAVIKCTYSDSASNYFPWYKQELGKRPQLIIDIRSNVGEKKDQRIAVTLNKTAKHFSLHITETQPEDSAVYFCVVLGGAGNMLTFGGGTRLMVKP
# V domain 2: B2 V domain 2 with V97T, S98V, G99S, N100D, E101G, Q102Y, F103T, P106S, L113V
# B17: TCR A (TCR, V domains shown)
# V domain 1: AQSVAQPEDQVNVAEGNPLTVKCTYSVSGNPYLFWYVQYPNRGLQFLLKYITGDNLVKGSYGFEAEFNKSQTSFHLKKPSALVSDSALYFCAVRGGSYKYIFGTGTRLKVLA
# V domain 2: DTGVSQDPRHKITKRGQNVTFRCDPISEHNRLYWYRQTLGQGPEFLTYFQNEAQLEKSRLLSDRFSAERPKGSFSTLEIQRTEQGDSAMYLCASTPGTVYNEQFFGPGTRLTVLE
# B18: TCR F (TCR, V domains shown)
# V domain 1: GENVEQHPSTLSVQEGDSAVIKCTYSDSASNYFPWYKQELGKRPQLIIDIRSNVGEKKDQRIAVTLNKTAKHFSLHITETQPEDSAVYFCAAHLTGGGNKLTFGTGTQLKVEL
# V domain 2: B17 V domain 2 with T95S, P96S, G97R, T98A, V99G, Y100G, N101E, E102T, F104Y, T112L
# B19: TCR V (TCR, V domains shown)
# V domain 1: AQTVTQSQPEMSVQEAETVTLSCTYDTSENNYYLFWYKQPPSRQMILVIRQEAYKQQNATENRFSVNFQKAAKSFSLKISDSQLGDTAMYFCALYSGAGSYQLTFGKGTKLSVIP
# V domain 2: DTGVSQDPRHKITKRGQNVTFRCDPISEHNRLYWYRQTLGQGPEFLTYFQNEAQLEKSRLLSDRFSAERPKGSFSTLEIQRTEQGDSAMYLCASSLAAGMNTEAFFGQGTRLTVVE
# B20: TCR AJ (TCR, V domains shown)
# V domain 1: EDQVTQSPEALRLQEGESSSLNCSYTVSGLRGLFWYRQDPGKGPEFLFTLYSAGEEKEKERLKATLTKKESFLHITAPKPEDSATYLCAVHSNAGGTSYGKLTFGQGTILTVHP
# V domain 2: DAGVTQSPTHLIKTRGQHVTLRCSPISGHKSVSWYQQVLGQGPQFIFQYYEKEERGRGNFPDRFSARQFPNYSSELNVNALLLGDSALYLCASSADRGSPLHFGNGTRLTVTE
# Legend:
# Test in all cases: cell-based or functional assay
# [1] = target: T1, HA-1 “H” peptide (…) presented by HLA-A*02:01 on antigen presenting cells (human)
# [2] = target: T1, HA-1 “H” peptide (…) presented by …; remark: listed apart in the source
# [3] = target: T1, HA-1 “H” peptide (…) presented by …; remark: listed apart in the source
Binder,EC50 values for CD69 Expression [1],other results
B1,40.2 ng/mL,–
B2,–,EC50 for CD69 Expression [2]: < 10 nM and < 10 ng/mL
B3,–,EC50 for CD69 Expression [2]: < 10 ng/mL and < 10 nM
B4,4.9 ng/mL,–
B5,1.1 ng/mL,–
B6,–,EC50 for CD69 Expression [2]: < 10 ng/mL and < 10 nM
B7,10.8 ng/mL,–
B8,–,EC50 values for CD69 Expression [3]: 2.49 ng/mL
B9,7.18 ng/mL,–
B10,–,EC50 values for CD69 Expression [3]: 2.27 ng/mL
B11,–,EC50 values for CD69 Expression [3]: 9.2 ng/mL
B12,–,EC50 values for CD69 Expression [3]: 2.77 ng/mL
B13,–,EC50 values for CD69 Expression [3]: 3.4 ng/mL
B14,0.9 ng/mL,–
B15,1.5 ng/mL,–
B16,23.6 ng/mL,–
B17,–,EC50 for CD69 Expression [2]: < 10 ng/mL and < 10 nM
B18,–,EC50 for CD69 Expression [2]: < 10 ng/mL and < 10 nM
B19,125 ng/mL,–
B20,5 ng/mL,–
